Results published in patent US10766960 (dated 2020).
Positions count from the first letter of the chain named. Values joined by “and” are separate entries in the source; they are usually repeats but may differ in a detail not shown here. Identical values can stand only once.

T1: FcgRIIa H (human, UniProt P12318)
T1 chain: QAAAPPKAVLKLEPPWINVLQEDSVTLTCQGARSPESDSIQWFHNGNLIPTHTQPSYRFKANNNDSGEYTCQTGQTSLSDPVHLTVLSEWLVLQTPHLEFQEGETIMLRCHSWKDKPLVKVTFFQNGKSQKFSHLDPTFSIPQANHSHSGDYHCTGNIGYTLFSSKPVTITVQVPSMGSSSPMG

T2: FcgRIIa R (human, UniProt P12318)
T2 chain: T1 chain with H134R

T3: FcgRIa (human, UniProt P12314)
T3 chain: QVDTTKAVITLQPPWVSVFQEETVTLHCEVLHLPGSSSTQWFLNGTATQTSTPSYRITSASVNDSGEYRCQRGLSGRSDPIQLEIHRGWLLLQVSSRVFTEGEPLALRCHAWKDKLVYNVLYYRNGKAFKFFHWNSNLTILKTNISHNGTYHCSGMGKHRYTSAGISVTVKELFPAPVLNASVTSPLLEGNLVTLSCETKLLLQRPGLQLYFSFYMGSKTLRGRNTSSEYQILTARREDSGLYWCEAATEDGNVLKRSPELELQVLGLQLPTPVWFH

T4: FcgRIIb (human, UniProt P31994)
T4 chain: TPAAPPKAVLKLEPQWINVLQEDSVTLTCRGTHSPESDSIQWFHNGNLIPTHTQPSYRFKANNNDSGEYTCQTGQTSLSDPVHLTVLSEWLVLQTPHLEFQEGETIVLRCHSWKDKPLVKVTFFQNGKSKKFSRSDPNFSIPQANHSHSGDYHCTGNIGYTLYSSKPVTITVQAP

B1: H240-FA030/H240-FB059/L73-k0 (antibody)
chain 1: QDQLVQSGAEVKKPGASVKVSCKASGFNIKDTYIQWVRQAPGQGLEWMGRIDPLRKQTKYREKFEGRVTITADTSTNTAYMELSSLRSEDTAVYYCVRSGREFDYWGQGTLVTVSSASTKGPSVFPLAPSSKSTSGGTAALGCLVKDYFPEPVTVSWNSGALTSGVHTFPAVLQSSGLYSLSSVVTVPSSSLGTKTYTCNVNHKPSNTKVDKKVEPKSCDKTHTCPPCPAPEYYWGPSVFLFPPKPKDTLMISRTPEVTCVVVDVSDEEPKVKFNWYVDGVEVHNAKTKPREEQYNATYRVVSVLTVLHQDWLNGKEYKCKVSNKALPAPIEKTISKAKGQPREPQVYTLPPSRKEMTKNQVSLTCLVKGFYPSDIAVEWESNGQPENNYKTTPPVLDSDGSFFLYSKLTVDKSRWQQGNVFSCSVMHEALHNRYTQKSLSLSP
chain 2: QDQLVQSGAEVKKPGASVKVSCKASGFNIKDTYIQWVRQAPGQGLEWMGRIDPLRKQTKYREKFEGRVTITADTSTNTAYMELSSLRSEDTAVYYCVRSGREFDYWGQGTLVTVSSASTKGPSVFPLAPSSKSTSGETAALGCLVEDYFPEPVTVSWNSGALTSGVHTFPAVLQSSGLYSLSSVVTVPSSSLGTQTYICNVNHKPSNTKVDKKVEPKSCDKTHTCPPCPAPELLGGPSVFLFPPKPKDTLMISRTPEVTCVVVDVSHEEPEVQFNWYVDGVEVHNAETKPREEQYNSTYRVVSVLTVLHQDWLNGKEYKCKVSNDALPMPIEETISKAKGQPREPQVYTLPPSREEMTKNQVSLTCLVKGFYPSDIAVEWESNGQPENNYKTTPPVLDSDGSFFLYSKLTVDKSRWQQGNVFSCSVMHEALHNHYTQESLSLSP
chain 3: DIQMTQSPSSLSASVGDRVTITCRASQDIHKYIAWYQQKPGQAPRLLIQYTSTLQPGVPSRFSGSGSGTDYTFTISSLQPEDIATYYCLQYEQLRTFGGGTKVEIKRTVAAPSVFIFPPSDEQLKSGTASVVCLLNNFYPREAKVQWKVDNALQSGNSQESVTEQDSKDSTYSLSSTLTLSKADYEKHKVYACEVTHQGLSSPVTKSFNRGEC
B2: H240-FA024/H240-FB082/L73-k0 (antibody)
chain 1: B1 chain 1 with M357K
chain 2: B1 chain 2 with N383E
chain 3: B1 chain 3
B3: H240-FA021/H240-FB083/L73-k0 (antibody)
chain 1: B1 chain 1 with K271E, M357K, V396K
chain 2: B1 chain 2 with G136E, E137S, S191N, L192F, I198T, N202D, K213T
chain 3: B1 chain 3
B4: H240-FA009/H240-FB033/L73-k0 (antibody)
chain 1: B1 chain 1 with T198I, K271E
chain 2: B1 chain 2 with E146K, E287K
chain 3: B1 chain 3
B5: H240-FA024/H240-FB059/L73-k0 (antibody)
chain 1: B1 chain 1 with M357K
chain 2: B1 chain 2
chain 3: B1 chain 3
B6: H240-FA024/H240-FB065/L73-k0 (antibody)
chain 1: B1 chain 1 with M357K
chain 2: B1 chain 2 with G136E, E137S, E146K, S191N, L192F, I198T, N202D, K213T
chain 3: B1 chain 3
B7: H240-FA009/H240-FB047/L73-k0 (antibody)
chain 1: B1 chain 1 with T198I, K271E
chain 2: B1 chain 2 with E137G, E146K, E287K, N383E
chain 3: B1 chain 3
B8: H240-FA021/H240-FB082/L73-k0 (antibody)
chain 1: B1 chain 1 with K271E, M357K, V396K
chain 2: B1 chain 2 with N383E
chain 3: B1 chain 3
B9: H240-FA009/H240-FB052/L73-k0 (antibody)
chain 1: B1 chain 1 with T198I, K271E
chain 2: B1 chain 2 with E137G, E146K, K213T, E287K
chain 3: B1 chain 3
B10: H240-FA030/H240-FB065/L73-k0 (antibody)
chain 1: B1 chain 1
chain 2: B1 chain 2 with G136E, E137S, E146K, S191N, L192F, I198T, N202D, K213T
chain 3: B1 chain 3
B11: H240-FA012/H240-FB001/L73-k0 (antibody)
chain 1: B1 chain 1 with T198I
chain 2: B1 chain 2 with E137G, E146K, E287K
chain 3: B1 chain 3
B12: H240-FA009/H240-FB021/L73-k0 (antibody)
chain 1: B1 chain 1 with T198I, K271E
chain 2: B1 chain 2 with E137G, E146K
chain 3: B1 chain 3
B13: H240-FA009/H240-FB017/L73-k0 (antibody)
chain 1: B1 chain 1 with T198I, K271E
chain 2: B1 chain 2 with G136E, E137G, E146K, N202D, E287K
chain 3: B1 chain 3
B14: H240-FA020/H240-FB082/L73-k0 (antibody)
chain 1: B1 chain 1 with K271E, M357K
chain 2: B1 chain 2 with N383E
chain 3: B1 chain 3
B15: H240-FA030/H240-FB083/L73-k0 (antibody)
chain 1: B1 chain 1
chain 2: B1 chain 2 with G136E, E137S, S191N, L192F, I198T, N202D, K213T
chain 3: B1 chain 3
B16: H240-FA012/H240-FB056/L73-k0 (antibody)
chain 1: B1 chain 1 with T198I
chain 2: B1 chain 2 with G136E, E137G, N202D
chain 3: B1 chain 3
B17: H240-FA009/H240-FB015/L73-k0 (antibody)
chain 1: B1 chain 1 with T198I, K271E
chain 2: B1 chain 2 with G136E, E137G, E146K, E287K
chain 3: B1 chain 3
B18: H240-FA020/H240-FB059/L73-k0 (antibody)
chain 1: B1 chain 1 with K271E, M357K
chain 2: B1 chain 2
chain 3: B1 chain 3
B19: H240-FA030/H240-FB064/L73-k0 (antibody)
chain 1: B1 chain 1
chain 2: B1 chain 2 with G136E, E137S, E146K, S191N, L192F, I198T, N202D, K213T, E287K
chain 3: B1 chain 3

Biological target: T1, FcgRIIa H
Assay: SPR

Binder | Kd [nM]
B1 | 85
B2 | 80
B3 | 69
B4 | 80
B5 | 93
B6 | 95
B7 | 74
B8 | 77
B9 | 72
B10 | 99
B11 | 110
B12 | 70
B13 | 61
B14 | 69
B15 | 82
B16 | 86
B17 | 84
B18 | 77
B19 | 96

Biological target: T2, FcgRIIa R
Assay: SPR

Binder | Kd
B1 | 260 nM and 250 nM
B2 | 240 nM
B3 | 240 nM
B4 | 310 nM
B5 | 290 nM
B6 | 300 nM
B7 | 270 nM
B8 | 230 nM
B9 | 270 nM
B10 | 340 nM
B11 | 350 nM
B12 | 280 nM
B13 | 230 nM
B14 | 270 nM
B15 | 280 nM
B16 | 280 nM
B17 | 330 nM
B18 | 250 nM
B19 | 290 nM

Biological target: T3, FcgRIa
Assay: SPR

Binder | Kd
B1 | 0.082 nM and 0.12 nM
B2 | 0.13 nM
B3 | 0.078 nM
B4 | 0.12 nM
B5 | 0.089 nM
B6 | 0.15 nM
B7 | 0.05 nM
B8 | 0.06 nM
B9 | 0.051 nM
B10 | 0.1 nM
B11 | 0.076 nM
B12 | 0.051 nM
B13 | 0.11 nM
B14 | 0.079 nM
B15 | 0.081 nM
B16 | 0.1 nM
B17 | 0.093 nM
B18 | 0.038 nM
B19 | 0.057 nM

Biological target: FcgRIIIa V (human, UniProt P08637)
Sequence (P08637 17-208 F176V): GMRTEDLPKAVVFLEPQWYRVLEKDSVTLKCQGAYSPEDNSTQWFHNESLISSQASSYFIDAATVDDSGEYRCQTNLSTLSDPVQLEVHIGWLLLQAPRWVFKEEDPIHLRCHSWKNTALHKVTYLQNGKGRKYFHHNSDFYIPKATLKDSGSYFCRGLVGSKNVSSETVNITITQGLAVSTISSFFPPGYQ
Assay: SPR

Binder | Kd
B1 | 1.2 nM and 1.4 nM
B2 | 1.3 nM
B3 | 1.4 nM
B4 | 1 nM
B5 | 1.3 nM
B6 | 1.4 nM
B7 | 1.1 nM
B8 | 1.5 nM
B9 | 0.89 nM
B10 | 1.1 nM
B11 | 1.5 nM
B12 | 0.78 nM
B13 | 0.84 nM
B14 | 1.1 nM
B15 | 1.2 nM
B16 | 1.3 nM
B17 | 1.3 nM
B18 | 1.3 nM
B19 | 1.5 nM

Biological target: T4, FcgRIIb
Assay: SPR

Binder | Kd [nM]
B1 | 1500
B2 | 1500
B3 | 1300
B4 | 1600
B5 | 1600
B6 | 1700
B7 | 1700
B8 | 1600
B9 | 1400
B10 | 2400
B11 | 1700
B12 | 2200
B13 | 1400
B14 | 1200
B15 | 1500
B16 | 1400
B17 | 1800
B18 | 1300
B19 | 1800

Biological target: FcgRIIIa F (human, UniProt P08637)
Sequence (P08637 17-208): as the sequence (P08637 17-208 F176V) above, with V160F counted along it
Assay: SPR

Binder | Kd
B1 | 3.9 nM and 4.8 nM
B2 | 4.6 nM
B3 | 3.9 nM
B4 | 3.4 nM
B5 | 4.4 nM
B6 | 5 nM
B7 | 4.4 nM
B8 | 4.2 nM
B9 | 4.3 nM
B10 | 4.6 nM
B11 | 6.3 nM
B12 | 3.7 nM
B13 | 3 nM
B14 | 3.4 nM
B15 | 3.9 nM
B16 | 5 nM
B17 | 4.2 nM
B18 | 3.5 nM
B19 | 5.3 nM
